Assay results: patent US20060233822A1 (YANG SHENG TANG, published 2006)
Substitutions are numbered along the chain they refer to.

Assays:
7-peptide HPTLLRI = assay: phage display panning on coated MAb; 5 clones
7-peptide SLPTLTL = assay: phage display panning on coated MAb; 1 clone
7-peptide PVQMPWL = assay: phage display panning on coated MAb; 1 clone
7-peptide ITNDFKQ = assay: phage display panning on coated MAb; 1 clone
C149-mut-8C11 = assay: dot blot of E. coli lysate supernatant
7-peptide SSYEWFI = assay: phage display panning on coated MAb; 1 clone
7-peptide SSMFFYR = assay: phage display panning on coated MAb; 1 clone
7-peptide INQKPTL = assay: phage display panning on coated MAb; 1 clone
7-peptide SLVTGIL = assay: phage display panning on coated MAb; 1 clone
7-peptide SAPSSKN = assay: phage display panning on coated MAb; 1 clone
7-peptide VSWNSLV = assay: phage display panning on coated MAb; 1 clone
7-peptide NHWASPR = assay: phage display panning on coated MAb; 1 clone
7-peptide YQDSAKT = assay: phage display panning on coated MAb; 2 clones
7-peptide SPKMPIL = assay: phage display panning on coated MAb; 1 clone
7-peptide SAHVLST = assay: phage display panning on coated MAb; 1 clone
7-peptide SPPNVRT = assay: phage display panning on coated MAb; 1 clone
7-peptide STLFMNF = assay: phage display panning on coated MAb; 1 clone
polypeptide 209 = polypeptide 209 (hepatitis E virus); assay: ELISA with 8C11
7-peptide ALWGPTS = assay: phage display panning on coated MAb; 2 clones
C149-mut-8H3 = biological target: T1, C149-mut-8H3; assay: dot blot of E. coli lysate supernatant
T1 chain: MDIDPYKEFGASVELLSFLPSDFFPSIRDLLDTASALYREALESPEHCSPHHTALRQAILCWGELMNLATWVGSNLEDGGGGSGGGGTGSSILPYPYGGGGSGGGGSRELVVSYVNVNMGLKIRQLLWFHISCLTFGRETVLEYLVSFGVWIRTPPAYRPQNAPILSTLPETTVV

B1: monoclonal antibody 8C11 (antibody, V domains shown)
VH: QVTLKESGPGILQPSQTLSLTCSFSGFSLSTSGMGVGWIRQPSGKGLEWLAHIWWDDVKRYSPALKSRLTISKDTSSSQLFLKIASVDTADTATYYCARIKSVITTGDYALDYWGQGTSVAVSS
VL: DIQMTQSPASLSVSVGETVTITCRASEIIYSNLAWYQQKQGKSPQLLVYSATNLAEGVPSRFSGSGSGTQYSLKINSLQSEDFGSYYCQHFWGNPWTFGGGTKLEIKR
notes: also called MAb 8C11; HRP-8C11
binds: binding result (7-peptide HPTLLRI) | binding result (7-peptide SLPTLTL) | binding result (7-peptide PVQMPWL) | binding result (7-peptide ITNDFKQ) | binding result (C149-mut-8C11)

B2: monoclonal antibody 13D8 (antibody, V domains shown)
VH: DVQLQESGPGLVKPSQSLSLSCSVTGYSITSGYYWNWIRQFPGNKLEWMGYIGYDGSNKYNPSLKNRISITRDTSKNQFFLKLTSVTTGDTATYYCVRDVKYYFDYWGQGTTVTVSS
VL: B1 VL with I28N, S50A, E56D, N76S, N94S
notes: also called MAb 13D8; HRP-13D8
binds: binding result (7-peptide SSYEWFI) | binding result (7-peptide SSMFFYR) | binding result (7-peptide INQKPTL) | binding result (7-peptide SLVTGIL) | binding result (7-peptide SAPSSKN) | binding result (7-peptide VSWNSLV) | binding result (7-peptide NHWASPR) | binding result (7-peptide YQDSAKT)

B3: monoclonal antibody 8H3 (antibody, V domains shown)
VH: QVQLKESGPGLVAPSQSLSITCTVSGFSLIGYGVNWVRQPPEKGLEWLGMIWGDGSTDYNSALKSRLSITKDNSKSQVFLKMNSLQTDDTARYYCAMGVRPDPFDYWGQGTLVTVSA
VL: NIMMTQSPSSLAVSAGEKVTMSCKSSQSVLYSSNQKNYLAWYQQKPGQSPKLLIYWASARESGVPDRFTGSGSGTDFTLTINSVQTEDLAVYYCHQYLSSYTFGGGTKLEIKR
notes: also called MAb 8H3; HRP-8H3
binds: binding result (7-peptide SPKMPIL) | binding result (7-peptide SAHVLST) | binding result (7-peptide SPPNVRT) | binding result (7-peptide STLFMNF) | binding result (7-peptide ALWGPTS) | binding result (C149-mut-8H3)
3 fold: 8C11 increases 8H3's reactivity (polypeptide 209)
